This is an account of results in patent US20110245474A1 (PFENEX, published 2011).

This test has as its target T1, recombinant human granulocyte colony stimulating factor receptor (GCSF-R) (R & D Systems, cat# 381GR/CF), … (human, UniProt Q99062 25-621, limits assumed, biotinylated using NHS-LC-LC-biotin (sites not given)).
T1 construct: Bought reagent; also called b-GCSF-R; G-CSF receptor
T1 sequence (looked up): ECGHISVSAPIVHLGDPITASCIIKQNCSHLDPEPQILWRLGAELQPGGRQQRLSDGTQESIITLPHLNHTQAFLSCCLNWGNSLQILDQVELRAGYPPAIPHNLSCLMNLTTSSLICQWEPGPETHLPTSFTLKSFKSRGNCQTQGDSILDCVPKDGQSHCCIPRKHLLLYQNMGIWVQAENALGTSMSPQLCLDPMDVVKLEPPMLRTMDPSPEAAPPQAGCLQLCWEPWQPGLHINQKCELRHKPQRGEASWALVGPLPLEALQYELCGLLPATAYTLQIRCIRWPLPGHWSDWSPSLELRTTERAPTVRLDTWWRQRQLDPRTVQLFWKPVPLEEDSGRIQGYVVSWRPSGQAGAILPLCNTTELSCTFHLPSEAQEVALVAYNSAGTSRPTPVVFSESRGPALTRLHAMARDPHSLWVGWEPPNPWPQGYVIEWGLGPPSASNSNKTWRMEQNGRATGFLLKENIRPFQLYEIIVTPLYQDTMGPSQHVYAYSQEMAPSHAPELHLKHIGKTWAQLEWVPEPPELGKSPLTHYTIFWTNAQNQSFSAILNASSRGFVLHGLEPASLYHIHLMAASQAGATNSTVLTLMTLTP
The test is described as follows: biolayer interferometry (Octet), biotinylated GCSF-R on streptavidin sensors, soluble lysate fractions, used to quantify the protein against a standard curve. How it is done: Soluble fractions were prepared by sonication followed by centrifugation. Normalized culture broth samples (400 μL) were sonicated with the Cell Lysis Automated Sonication System (CLASS, Scinomix) with a 24 probe tip horn. The lysates were centrifuged at 14,000×rpm for 20 minutes (4° C.) and the supernatants collected (soluble fraction). Further dilutions of soluble samples for biolayer interferometry analysis were performed in ForteBio's Sample Diluent (PN, described below).
The lyophilized recombinant human granulocyte colony stimulating factor receptor (GCSF-R) (R & D Systems, cat# 381GR/CF) was reconstituted in PBS buffer (Sigma, P3813) to 0.5 mg/mL and biotinylated using NHS-LC-LC-biotin (Pierce, 21343) according to the method described in ForteBio Technical Note: “Biotinylation of Protein for Immobilization onto Streptavidin Sensors.” The biosensors (Streptavidin High Binding FA Biosensors, ForteBio, 18-0009) were hydrated in 1× kinetics buffer (10-fold dilution of 10× Kinetics Buffer, ForteBio, 18-5032 into PBS) for at least 10 minutes. […]
The soluble fraction of the strain array samples were diluted 20-fold into 1× kinetics buffer. […] The samples were read at 200 rpm, 30° C., for 120 sec, and quantitation was calculated from a standard curve at 12, 6, 3, 1.5, 0.75, 0.375, 0.188, and in some cases as low as 0.094 μg/ml.
(Biolayer interferometry detects binding as a change in optical thickness at a sensor tip.)

B1: recombinant human G-CSF protein comprising an N-terminal methionine (Met-G-CSF), produced in Pseudomonas fluorescens (ligand)
chain: MTPLGPASSLPQSFLLKCLEQVRKIQGDGAALQEKLCATYKLCHPEELVLLGHSLGIPWAPLSSCPSQALQLAGCLSQLHSGLFLYQGLLQALEGISPELGPTLDTLQLDVADFATTIWQQMEELGMAPALQPTQGAMPAFASAFQRRAGGVLVASHLQSFLEVSYRVLRHLAQP
notes: Tested as soluble fraction of P. fluorescens lysates, diluted, not purified; also called hG-CSF
For B1, the binding result is “binds”.
